Data from the supplement of paper PMC9170038.

Tested on: MS2 coat protein
Assay: apparent KD of MS2 coat protein; designed switch direction (-1 OFF switch, 1 ON switch): -1; higher = weaker reporter binding
Outline: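 The reported apparent KD is a per-design median over clusters, from curve fits of normalised cluster fluorescence. Protein titrations used SNAP-549-labelled MS2 coat protein, doubled from 0.7 or 1.5 nM to 3 µM, in Tris-HCl pH 7.5 buffer with KCl, MgCl2, BSA, DTT, tRNA and Tween-20, with no input, 200 uM small-molecule ligand, or an oligonucleotide input. The RNA switches were transcribed on Illumina chips by stalled E. coli RNA polymerase.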

[1] = Eterna round: R95, input ligand: FMN 200 uM
[2] = Eterna round: R95, input ligand: microRNA oligo, concentration not stated
[3] = Eterna round: R95, input ligand: none
[4] = input ligand: microRNA oligo, concentration not stated

| Sequence | apparent KD of MS2 coat protein (input ligand: FMN 200 uM) | apparent KD of MS2 coat protein (input ligand: none) | apparent KD of MS2 coat protein [1] | apparent KD of MS2 coat protein [2] | apparent KD of MS2 coat protein [3] | apparent KD of MS2 coat protein [4] |
| --- | --- | --- | --- | --- | --- | --- |
| AGUGGCCGAGGAUAUACAUGAGGAUCACCCAUGUUUUAUGUUGAAACGUUAGCGGCCUGUAGAAGGCGGACCUU [Eternabot (L2) Solution 76] (Eterna round: R97, puzzle: Exclusion 3) | 17.5 nM | 19.3 nM |  |  |  |  |
| AGUGUGUGGCAGGAUAUGCAAUUUAUAGGUGAAGCAGAAGGGUCUACAUGAGGAUCACCCAUGUGUGCGGUUGA [Ex6 #20] (Eterna round: R97, puzzle: Exclusion 6) | 600 nM | 188 nM |  |  |  |  |
| AGUGUGUGGCAGGAUAUGCGAUUUGUAAGUAUUGCAGAAGGGUCUACAUGAGGAUCACCCAUGUGUGCGGUUGA [Ex6 #25] (Eterna round: R97, puzzle: Exclusion 6) | 947 nM | 469 nM |  |  |  |  |
| AGUGUGUGGCAGGAUAUGCUAUUGAUUGGUGAAGCAGAAGGGUCUACAUGAGGAUCACCCAUGUAAGCGGUUGA [Ex6 #28] (Eterna round: R97, puzzle: Exclusion 6) | 327 nM | 46.4 nM |  |  |  |  |
| AGUGUGUGGCAGGAUAUUCUAAUGAUUAGGAGGGAAGAAGGGUCUACAUGAGGAUCACCCAUGUAAGCGGUUGA [Ex6 #39] (Eterna round: R97, puzzle: Exclusion 6) | 135 nM | 38.3 nM |  |  |  |  |
| AGUUAAGCAGGAUAUAUCCGGGAUAACAUGAGGAUCACCCAUGUGACCGCUUGAUAUCCUAUAGAAGGGCUUAAGA [Mod of ViennaUCT 25 - Jieux - Exclusion 5] (Eterna round: R97, puzzle: Exclusion 5) | 68.2 nM | 27.4 nM |  |  |  |  |
| AGUUACUACAAGCUUUGGGACAUGAGGAUCACCCAUGUUCGUCUUAUUGUAGUAGGUACGCUGACGUACCUACUACU [Mat - Sensor v3 - turn-off var 1 - JL Mod - D6] (puzzle: Sensor v3, turn-off variant 1) |  |  | 15.9 nM | 42.8 nM | 14.5 nM |  |
| AGUUCUAACACGUUGGUGUUAGUACCAUAAGCUUGUGAUACAUGAGGAUCACCCAUGUCCUCAUAAGCUCGUCUUAU [salish99_TOv2_r3_1001] (Eterna round: R96, puzzle: Sensor v3, turn-off variant 2) | 25.2 nM | 27.3 nM |  |  |  | 563 nM |
| AGUUCUAACACGUUGGUGUUAGUACCAUAAGCUUGUGAUACAUGAGGAUCACCCAUGUCCUCAUAAGCUCGUCUUAU [salish99_TOv2_r3_1001] (puzzle: Sensor v3, turn-off variant 2) |  |  | 26.8 nM | 400 nM | 21.9 nM |  |
| AGUUGGCGAGGAUAUACAUGAGGAUCACCCAUGUGAAAUUAAAGUGAGUAAAUGAAAAGUAGAAGGCGCUGACA [Mod of Mat 21 - Jieux - Exclusion 3] (Eterna round: R97, puzzle: Exclusion 3) | 259 nM | 40.3 nM |  |  |  |  |
| AGUUGGCGAGGAUAUACAUGAGGAUCACCCAUGUGAAUAAGAAUAGUGAGGAAGAAAAGUAGAAGGCGCUGACA [Mat - Exclusion 3 - Mod of Salish D36] (puzzle: Exclusion 3) |  |  | 237 nM | 39.8 nM | 44.5 nM |  |
| AGUUGGCGAGGAUAUACAUGAGGAUCACCCAUGUGAGAGAAAAAAGUGAGGAAGAAAAGUAGAAGGCGCUGACA [salish99_ex3_r3_038] (puzzle: Exclusion 3) |  |  | 318 nM | 48.3 nM | 77.3 nM |  |
| AGUUGGCGAGGAUAUACAUGAGGAUCACCCAUGUGAGAGAAUAAAGUGAGGAAGAAAAGUAGAAGGCGCUGACA [Mat - Exclusion 3 - Mod of Salish D9] (puzzle: Exclusion 3) |  |  |  | 47.7 nM |  |  |
| AUAAAAGAAGUUAGGAUAUGGAAUCGUGGCAACGACCAGAAGGAACUUGAGGAUCACCCAAGUGAUUCUGAUCG [Atzaace] (Eterna round: R97, puzzle: Brourd's mod of Exclusion 4) | 15.2 nM | 14.1 nM |  |  |  |  |
| AUAAAUAAUGCAGGAUAUGUCGGCGAAAGGCCGGCAGAAGGGCAGCGUGGAUGUAUCCUGAACAUGAGGAUCACCCAUGUGAAA [Ederisbi] (Eterna round: R96, puzzle: Exclusion NG 1) | 209 nM | 347 nM |  |  |  | 168 nM |
| AUAAAUCAUGUAGGAUAUGCGUAGCGAAGCUAUGCAGAAGGACAUGAGGAUCACCCAUGUCUUUCCGUCUGCGUACAGACGGAA [Mat - Exclusion NG 1 - Mod of JL - D42] (Eterna round: R96, puzzle: Exclusion NG 1) | 149 nM | 24.1 nM |  |  |  | 20.1 nM |
| AUAAAUCAUGUAGGAUAUGCGUGGAGAAGCUAUGCAGAAGGACAUGAGGAUCACCCAUGUGCUUCCGUCUGCGUACAGACGGAA [Mat - Exclusion NG 1 - Mod of JL - D36] (Eterna round: R96, puzzle: Exclusion NG 1) | 38 nM | 131 nM |  |  |  | 89.2 nM |
| AUAAAUCAUGUAGGAUAUGCGUGGCAAAGCUAUGCAGAAGGACAUGAGGAUCACCCAUGUGCUUCCGUCUGGGAACAGACGGUA [Mat - Exclusion NG 1 - Mod of JL - D34] (Eterna round: R96, puzzle: Exclusion NG 1) | 243 nM | 84.9 nM |  |  |  | 67.7 nM |
| AUAAGUAUAUAGGAUAUCUAGCUGGAAACAGCUAGAGAAGGAUGUACAUGAGGAUCACCCAUGUAAAUCUCAAU [Ex6/12-A3] (Eterna round: R97, puzzle: Exclusion 6) | 16.3 nM | 14.1 nM |  |  |  |  |
| AUAAGUAUAUAGGAUAUCUAGCUGGAUACAGCUAGAGAAGGAUGUACAUGAGGAUCACCCAUGUAAAUCUCAAU [Ex6/12-A1] (Eterna round: R97, puzzle: Exclusion 6) | 18.7 nM | 15.1 nM |  |  |  |  |
| AUAAGUGAUAAGGAUAUUACUAGCUGCGGCUAGUGAGAAGGUAUCACAUGAGGAUCACCCAUGUGUUCCAAUAA [Ex6/7-B3] (Eterna round: R97, puzzle: Exclusion 6) | 254 nM | 134 nM |  |  |  |  |
| AUAAUAUAUGUAGGAUAUCUGCACGAUUAGUGCAGAGAAGGACAUGAGGAUCACCCAUGUAAUUAAGAUCAAUUAUUAAAUUAU [ENG1/4-B1] (Eterna round: R96, puzzle: Exclusion NG 1) | 84.3 nM | 35.4 nM |  |  |  | 24.6 nM |
